Measurements from the DeepSol protein solubility set.

Assay: soluble on expression in E. coli; label from the status in PepcDB or PDB records

Sequence | soluble on expression in E. coli
MFKRLSRFLLPLVWIFTATTALADDTQINTMDPYSMVKSVANKTFDRFHKDKALIDADADHLKVIVREELMPYIDYKYASYKVLGQYLKESTEDQRNRFVDAFQGYLVTTYAQAFTEYTNQKVEFSPGSDFSNEKIVDVNVQIIEAGRPPIKLLFKARRLKDDSWKAFDLVAEGVSLLSSKQSEISNLIRQQGIEPVIKMLEERTKDKVTKQPKAGKLEHHHHHH | soluble
MRKLVVGSRRSKLALTQSQQFIDKLKAVEPNLEIEIKEIVTKGDRIVDKQLSKVGGKGLFVKEIQHELFEKNIDMAIHSLKDVPSVIPEGLTLGCIPDRELPFDAYISKTHTPLSQLPEGSIIGTSSLRRGAQILSKYPNLEIKWIRGNIDTRLEKLQTEDYDAIILAAAGLRRMGWSDDIVTSYLDRDTLLPAIGQGALGIECRSDDEELLTLLSKVHNDEVAKCVTAERTFLAEMDGSCQVPIAGYATISDQNEIEFTGLIMTPDGKERFEYTMNGTDPVELGKTVSNKLKEQGAYEIIKRLNEQH | not soluble
MNKNGFSRCADIYIGRLREEGRYSTAHVYQNALLSFSKFCGVHSVSFRQVTRERLRCYEQHLYECGLKPNTISTYMRMLRSIYNRGVEAGSAPYVHRLFHEVYTGVDVRQKRALPVVALRRLLYEDPQSDRLRRTQAIAALMFQFCGMSFADLSHLEKSALDSNVLRYNRVKTKTPMSVEVLDSAQEMLDQLRNRQSPRPGCPDYLFGILHGDKKRKDERAYREYQSALRRFNYCLKSLAKRLRLNFPVTSYTLRHSWATTAKYRGVPIEMISESLGHKSIKTTQIYLKGFELKERTEVNRMNLSYVKRCGVGQCI | not soluble
MKNELICYKQMPVWTKDNLPQMFQEKHNTKVGTWGKLTVLKGKLKFYELTENGDVIAEHIFTPESHIPFVEPQAWHRVEALSDDLECTLGFYCKKEDYFSKKYNTTAIHGDVVDAAKIISPCKVLDLGCGQGRNSLYLSLLGYDVTSWDHNENSIAFLNETKEKENLNISTALYDINAANIQENYDFIVSTVVFMFLNRERVPSIIKNMKEHTNVGGYNLIVAAMSTDDVPCPLPFSFTFAENELKEYYKDWEFLEYNENMGELHKTDENGNRIKMKFATMLARKKLEHHHHHH | not soluble
GMEPIMRNPEDALLDSWHQNAQAWIDAVRHGAIESRRQVTDQAILLAILGRQPERVLDLGCGEGWLLRALADRGIEAVGVDGDRTLVDAARAAGAGEVHLASYAQLAEAKVPVGKDYDLICANFALLHQDIIELLSAMRTLLVPGGALVIQTLHPWSVADGDYQDGWREESFAGFAGDWQPMPWYFRTLASWLNALDMAGLRLVSLQEPQHPQSAVPQSLLMVAERH | soluble
VKDISMENLKKIFLGEVTNWKELGGKDQKIVILNRAAGSGTRATFEKWVLGDKTAIRAQEQDSSGMVRSIVSDTPGAISYTAFSYVTDEVATLSIDGVQPTDENVMNNKWIIWSYEHMYTRKNP | not soluble
MGELNKSARQIVEAVGGAENIAAATHCVTRLRFALIDESKVDQEMLDQIDVVKGSFSTNGQFQVVIGQGTVNKVYAELVKETGIGESTKDEVKKASEKNMNPLQRAVKTLADI | soluble
MDEAYKMRCDWYHHGELVSGGESESKFSQLNDEVVELYQAAEYLDEEFAGMVHLGEIVERDDKKEDEFLAKLADAETPLYPSCFNHSKLSAIMSLFTLKTKNGWSDKSHNDLLETLPEMLLEDNVLHSSLYEVKKFLKSFDMG | not soluble
QSFRAIQLSDLHIGGLIEEHYMEALGERINALKPDMIFLTGDITDASCEQIRTPLEKLKALQAPLGIYFVSGNHEFFHGIQKTMDFLREMGIVVLENDSRTIEGLVNIAGVHDLFGRRIGFLEPDLEQALYGIDPSLPTILLAHQPKFAKEALGYPVDLILSGHTHGGQIAPFGLLVR | not soluble
SMPEQSNDYRVVVFGAGGVGKSSLVLRFVKGTFRDTYIPTIEDTYRQVISCDKSVCTLQITDTTGSHQFPAMQRLSISKGHAFILVFSVTSKQSLEELGPIYKLIVQIKGSVEDIPVMLVGNKCDETQREVDTREAQAVAQEWKCAFMETSAKMNYNVKELFQELLTLETRRNMSLNIDGKRSGKQKRTDRVKGKCTLM | soluble
MNLHEYQAKEILARYGVPVPPGKVAYTPEEAKRIAEEFGKRVVIKAQVHVGGRGKAGGVKLADTPQEAYEKAQAILGMNIKGLTVKKVLVAEAVDIAKEYYAGLILDRAKKRVVLMLSKEGGVDIEEVAAERPEAIHKFWIDPHKGFRPFEAREMVKRAGLEGNLNKLAQVLVALYRAYEGVDASIAEINPLVVTTDGGIVAADAKIVLDDNALFRHPDLAELREVEAEHPLEVEASNYGFAYVKLDGNIGIIGNGAGLVMYTLDLVNRVGGKPANFLDIGGGAKADVVYNALKVVLKDPDVKGVFINIFGGITRADEVAKGVIRALEEGLLTKPVVMRVAGTAEEEAKKLLEGKPVYMYPTSIEAAKVIVAMVGGAA | soluble
MRERGVAFFSGGKDGLYALYLAEKEGIEVPYLLTLKTSIGLSPHWENLSSLKALAENMGKKLLTFDMKYGSKALAEFISSLDVDYIIAGDVFLEDHLKWINLLAEKAGIKSFEPLWGKNTLELAKEMLNAGFKYSIIAVDKNKLEKTWLGYTFSSTRDIEIFIYENPTIDPLGEGGEFHTITLSSPLFKDEFTLEKISVEESERYWWMRFRVVGNDIKNVRVKGHNSRKDGLEHHHHHH | soluble
GHMYAIAEDTLPARVLKELLLYRRRYPEHRQSASEADEIRRIEQVQLPRIAAFIEAGEPIEFVLPAFPAKSPNPGKVLDSRPDMAERLSLSFLNHLCQRIQLFYAPGAKITVCSDGRVFGDLVRIGDAHISAYQDALRLMIEEIGATHIGVFNLEDVRAFEAQRDNHEQLRQLLIGGYAEPLESIRETLLASEEGLLLYRAITRFLYEDGLTPDYQGSKTALQRDAKERAYGVIQRSWAWGALLADQFPRAIRLSIHPQPADSLKFGIHMMPTRDDWLTPWHGVAVNTEDRFVLMKRSEVLELGGELVQINGQPSHYRLPARAARRAAVA | soluble
MHNQAPIQRRKSTRIYVGNVPIGDGAPIAVQSMTNTRTTDVEATVNQIKALERVGADIVRVSVPTMDAAEAFKLIKQRVNVPLVADIHFDYRIALKVAEYGVDCLRINPGNIGNEERIRMVVDCARDKNIPIRIGVNAGSLEKDLQEKYGEPTPQALLESAMRHVDHLDRLNFDQFKVSVKASDVFLAVESYRLLAKQIDQPLHLGITEAGGARSGAVKSAIGLGLLLSEGIGDTLRVSLAADPVEEIKVGFDILKSLRIRSRGINFIACPTCSRQEFDVIGTVNALEQRLEDIITPMDVSIIGCVVNGPGEALVSTLGVTGGNKKSGLYEDGVRKDRLDNNDMIDQLEARIRAKASQLDEARRIDVQQVGKIITLEHHHHHH | not soluble
YETQSREKQTRQQHEHMLMIVSNLYEETVHLKKTLKTTEKVTNDSYQLYREMKGKDVQLSGRILRLAGEIHEVKKDNQRIFAGLSKLISNESLRDYMRASDLLQLVIRMNEKYAEALGKQIDFYCSIEGEHDEYHVFIVLSIINNLTANAVEAMDEEGMVSLRLRKPNESMVEFQVEDNGPGISEKIGDIVFDPGFTSKYDEFGTPSTGIGLSYVKEIVTELEGDITFDNQQRGVVFAIRLPVRHLIQKG | not soluble
MIVIKPFILACLIVKKRKDILGKCLYSLESIGGEIIIVDNGSTDKKKEIAQKLTDKVYDFKWMNNFVEARNFAASKVSGTWIIAVDADECIDINNFVAAMEEIKSYKDKISIFLVEIMSFVGDNGEEITVNTMARLYKNDGSVYFLWWNV | not soluble
MTLSRVSEMALSPDGKTAVYAVSFPDVKTNKATRELFTVNLDGSGRKQITDTESNEYAPAWMADGKRIAFMSNEGGSMQLWVMNADGTERRQLSNIEGGITGFLFSPDEKQVLFTKDIKFGKRTKDIYPDLDKATGRIITDLMYKHWDEWVETIPHPFIANATDGMITTGKDIMEGEPYEAPMKPWSGIEDFSWSPDGQNIAYASRKKTGMAYSLSTNSDIYIYNLASGRTHNISEGMMGYDTYPKFSPDGKSIAWISMERDGYESDLKRLFVADLATGKRTHVNPTFDYNVDMIQWAPDSKGIYFLACKEAETNLWEITLKTGKIRQITQGQHDYADFSVRNDVMLAKRHSFELPDDLYRVNLKNGAAQAVTAENKVILDRLTPITCEKRWMKTTDGGNMLTWVVLPPNFDKNKKYPAILYCQGGPQNTVSQFWSFRWNLRLMAEQGYIVIAPNRHGVPGFGQKWNEQISGDYGGQNMRDYLTAVDEMKKEPYVDGDRIGAVGASYGGFSVYWLAGHHDKRFAAFIAHAGIFNLEMQYATTEEMWFANWDIGGPFWEKDNVVAQRTYATSPHKFVQNWDTPILMIHGELDFRILASQAMAAFDAAQLRGVPSEMLIYPDENHWVLQPQNALLFHRTFFGWLDRWLKK | not soluble
MGSDKIHHHHHHMDEIEKSLQNWGQQLENVHLPRWHELPDIELYMDQVITLIEKYLSPLITLEKHTLLTSSMVNNYVKHGLIPAPVKKRYNQKHLAFLIAITLLKQVLTLPEIKQGILFQGATVGIREAYNLFCQEQERAIYVIAAQAQEKEVQAKSQEPMGIEYLAVKAATMSFATKMFSEKVIELEQEYLKEMDEMTHE | not soluble
MGSDKIHHHHHHMKYREILEAAVRAPSGENCQPWRFVMEGDVIRIFNIPDQDTSLFNLHQRASYVAHGALLENLSIAAPAFGYAPDISLFPDSHVPNLVAAVRMTEGPSFDDSLYPYIPKRCTNRKRYNGGALSAAESQTLLSVAERVPGGKVALTGSVQDKAEVAEVNALNDRLVFENEHLHAFLFEHVRWSDAEARERGDGLDIKTLELAPPDSLAFPLLKSWPLVDFLKNFGVPRIIAGSARKLALSAAAIGVVSVPGKGDKDCIAAGRLIERVWLEATKLGLSFQLMTGITLLMRRVLDGETENISSQHGELIKKAYGTLANRFGVEDGSLFIMFRVGRCGPPSVYSMRYPIDKVIDAP | not soluble
MPNTADQVDPLLASLSHFVDHTDLLAEHTMNAVEWEAVEVLMPRILRGKSKEDVKQLLLAEIDGMSKKRLDAVLAGETLEESSSSEDEEEQVIGSAGESEKSESPEIPEPEAKMEEQAVEAAEASEASDDGREDGEIRDDQGNTTSTPPDPGSPKSPEKGEAEQLDTDEEIDRLLEEDLEDFL | soluble
MSSPYSPREWLQLNMQQQGLLQPQTSVGQLIACLGYVQIDSINVVERAHHHVLHSRMPQYQPQMLDTALAQGEIFEYWSHAAAYLPIADYRFSLQRKQQLQNGGKHWFEPDDNAMQEVRARIRAEGPLKASDFEHTEGKNGAWWDWKPAKKALEQLFMRGELMVVRREKFQKCYDLTERVLPSHINTLAPSDSEFARHLISRYLDAHAFGSAAQIAYLRKGIKANVNQQLAAMQSQGELASFKAEGQWYFYRPELQITAAMPNRVWLLNPFDNLLIQRQRLKQWFDFDYQIEVYVPAEKRQYGYYSLAILWRDRFVGRVDVKADRQSGLLLLQQLTLEEGFDGMDEGFCSAFEATVSEYARFNICSRWKLVKANHKAFKLEHHHHHH | not soluble
MKTVSQLIDMKQKQTKISMVTAYDFPSAKQVEAAGIDMILVGDSLGMTVLGYESTVQVTLADMIHHGRAVRRGAPNTFVVVDMPIGAVGISMTQDLNHALKLYQETNANAIKAEGAHITPFIEKATAIGIPVVAHLGLTPQSVGVMGYKLQGATKEAAEQLILDAKNVEQAGAVALVLEAIPNDLAEEISKHLTIPVIGIGAGKGTDGQVLVYHDMLNYGVEHKAKFVKQFADFSVGVDGLKQYDQEVKSGAFPSEEYTYKKKIMNEVNNNDLEHHHHHH | soluble
